B1: TPR t1 (parent)
chain: GACCAAUCUGCCCUCAGAGCUCGAGAACAUCUUCGGAUGCAGAGGAGGCAGGCUUCGGUGGCGCGAUAGCGCCAACGUCCUCAACCUCCAAUGCAUCCCACCACAUGAUGAUGCCUGAAGAGCCUUGGUUUUUUG

Variants of: B1
Assay: polymerase ribozyme fitness, log enrichment relative to wild type (log ratio); higher = more active; in vitro selection for triplet polymerase activity
Method in brief: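 Fitness is a logarithmic measure of how a genotype enriched relative to the wild type, with replicate averages weighted by inverse variance. The logarithm uses base 2, and enrichment came from Illumina sequencing of input and output libraries. Those libraries were PCR-built, transcribed mutants of each subunit of a heterodimeric triplet polymerase ribozyme, passed through one triplicate in vitro selection round that included frozen incubation at −7 °C, gel excision of extended constructs and streptavidin-bead capture. Genotypes were kept only if they had ≥10 input reads and ≥1 read per output.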

| Variant | polymerase ribozyme fitness (log ratio) |
| --- | --- |
| C40A G51A U78C C124A | -3.18 |
| G63A U133G | -1.23 |
| A18U C85G G113C | -5.2 |
| C20A A26G G110U | -4.8 |
| G39U G71C U116G | -3.1 |
| G61U C102A | -2.05 |
| C3U C73U U87C C88U A111G C123A | -3.08 |
| C82A C88A G113A | -1.71 |
| G10U G120U | 1.99 |
| G45C C104A G120A | -1.45 |
| A6G A50G U112C | 1.56 |
| C28G G69A A121C | -5.9 |
| C8A C86G | -1.3 |
| U9G C11G C40U | -4.28 |
| A91U C115U U130A | -2.33 |
| A75G G120A A121C | 0.562 |
| A6U G61C U78G U130C | -3.92 |
| G93C A100C U130A | -2.66 |
| U21C A46G C53A G71C C98U | -6.73 |
| C8A C13G A46U | -1.07 |
| U9G C53A G71U C86U A100U G110U | -4.22 |

| Variant | polymerase ribozyme fitness (log ratio) |
| --- | --- |
| C8A C12A U78G | -0.297 |
| U59C G61C | -3.23 |
| G48C C56G G71A C97A C104U U112G | -6.76 |
| G44U C72G C85U U96A A121G C124G | -3.64 |
| G58C A66G | -0.999 |
| G10A C53A C72U C79A U96G | -1.55 |
| C3G A5U G60C A90G | -1.39 |
| U9C C72U C102A | -1.5 |
| U7G C31U | -3.68 |
| C8G A24C U38G G44A G63A C88U A95C G117U | -7.47 |
| A29U U96G U130C | -2.74 |
| G23C C85G C97A G120C | -7.88 |
| U129C U130A | -0.859 |
| A5U C8U G93A A105G | -2.84 |
| C70U C86U G117A | -2.35 |
| C12G C15U C62A | -1.99 |
| G60C U132A | -0.171 |
| A43U A83U | -1.8 |
| A16G A27U | -4.63 |
| U14A G44C G58U | -2.72 |
| C12G C22U G63A U87A | -4.98 |

| Variant | polymerase ribozyme fitness (log ratio) |
| --- | --- |
| A50C A90U | -2 |
| C22U C76A | -3.53 |
| A6G C13U C98U A119U | -2.09 |
| G48U G61U | 0.43 |
| G44C C97G U112A | -4.06 |
| G71U C97U | -0.285 |
| G44A G60C C114A | -2.55 |
| A29G G117C | -3.99 |
| A16C C73G U116C G135U | -3.68 |
| C88U C99U | -2.42 |
| C11A C56A C64U U126G | -4.75 |
| A27G A43U G47A C98U | -5.67 |
| C28G G63C U129A | -4.76 |
| U9C C40U A43G C49G U96G A119G U131A | -3.12 |
| A29U C56A | -2.25 |
| G25C G61C U96C C98A U112G C123U | -6.63 |
| A6G C12A C56A C72A | -1.87 |
| U7A C8G G45A | 0.548 |
| A41C G63U G93C G117A U132A | -4.71 |
| U92A C115G C123G | -5.89 |
| G69U G117U | -1.07 |

| Variant | polymerase ribozyme fitness (log ratio) |
| --- | --- |
| C49G C85U G117C | -3.67 |
| C3G C82U | -1.74 |
| G17C C104A | -6.53 |
| G63A C80U | -1.54 |
| A6C C8A C49A C56U | -0.31 |
| G35A C124G | -2 |
| A5C A90U | -2.01 |
| C8A C56U G69C U112A G120A | -7.42 |
| G42U A74U | -2.19 |
| G71A G77U | -1.13 |
| C64G A121G | -4.54 |
| G47C C73G U81A | -2.91 |
| G71A C73U C101A U132A | -2.2 |
| U14G A27G A29G G36C C40U C56A G63U C115U G122A | -6.64 |
| C11A C85U | -1.28 |
| C13U C102G | -6.43 |
| C22U G61C | -4.87 |
| G113C U116G C124A | -5.98 |
| A29U G44U G45A | -4.25 |
| U78C C115A | -0.63 |
